Test results published in the supplement of paper PMC10065799, “High-throughput profiling of sequence recognition by tyrosine kinases and SH2 domains using bacterial peptide display” (eLife, 2023).

Legend:
[1] = target: SHP2-C SH2; experiment: SH2 binding enrichment of the phosphorylated peptide, bacterial display (enrichment ratio); higher = better substrate or ligand; peptides without Tyr show the background
[2] = target: c-Src SH2; experiment: as above
[3] = target: Grb2 SH2 (UniProt P62993); experiment: as above
Chain of Grb2 SH2 (P62993 whole entry, looked up): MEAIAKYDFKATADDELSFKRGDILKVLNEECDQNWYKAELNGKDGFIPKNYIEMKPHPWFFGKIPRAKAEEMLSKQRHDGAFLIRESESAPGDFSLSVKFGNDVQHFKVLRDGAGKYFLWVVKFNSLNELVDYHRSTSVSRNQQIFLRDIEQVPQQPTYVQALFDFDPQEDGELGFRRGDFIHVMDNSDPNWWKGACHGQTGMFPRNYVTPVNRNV

[4] = target: Hck (UniProt P08631); experiment: phosphorylation enrichment, bacterial display (enrichment ratio); higher = better substrate or ligand; peptides without Tyr show the background
Chain of Hck (P08631 whole entry, looked up): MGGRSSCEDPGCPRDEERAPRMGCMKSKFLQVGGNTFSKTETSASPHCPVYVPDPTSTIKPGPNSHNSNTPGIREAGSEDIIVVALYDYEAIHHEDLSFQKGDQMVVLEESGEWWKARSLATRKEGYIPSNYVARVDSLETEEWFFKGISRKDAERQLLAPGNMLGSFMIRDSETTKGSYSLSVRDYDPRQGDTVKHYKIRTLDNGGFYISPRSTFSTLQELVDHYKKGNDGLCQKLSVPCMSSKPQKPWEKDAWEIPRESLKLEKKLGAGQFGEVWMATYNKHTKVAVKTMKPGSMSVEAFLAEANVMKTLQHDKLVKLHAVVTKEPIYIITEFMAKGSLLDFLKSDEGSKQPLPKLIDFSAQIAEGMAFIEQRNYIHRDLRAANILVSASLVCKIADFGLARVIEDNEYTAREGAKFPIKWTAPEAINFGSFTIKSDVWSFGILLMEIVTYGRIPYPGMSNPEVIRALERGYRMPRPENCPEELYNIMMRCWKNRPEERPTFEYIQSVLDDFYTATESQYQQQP

[5] = tested on: c-Src; experiment: as above
[6] = target: Fyn (UniProt P06241); experiment: as above
[7] = target: Jak2 (UniProt O60674); experiment: as above
Chain of Jak2 (O60674 whole entry, looked up): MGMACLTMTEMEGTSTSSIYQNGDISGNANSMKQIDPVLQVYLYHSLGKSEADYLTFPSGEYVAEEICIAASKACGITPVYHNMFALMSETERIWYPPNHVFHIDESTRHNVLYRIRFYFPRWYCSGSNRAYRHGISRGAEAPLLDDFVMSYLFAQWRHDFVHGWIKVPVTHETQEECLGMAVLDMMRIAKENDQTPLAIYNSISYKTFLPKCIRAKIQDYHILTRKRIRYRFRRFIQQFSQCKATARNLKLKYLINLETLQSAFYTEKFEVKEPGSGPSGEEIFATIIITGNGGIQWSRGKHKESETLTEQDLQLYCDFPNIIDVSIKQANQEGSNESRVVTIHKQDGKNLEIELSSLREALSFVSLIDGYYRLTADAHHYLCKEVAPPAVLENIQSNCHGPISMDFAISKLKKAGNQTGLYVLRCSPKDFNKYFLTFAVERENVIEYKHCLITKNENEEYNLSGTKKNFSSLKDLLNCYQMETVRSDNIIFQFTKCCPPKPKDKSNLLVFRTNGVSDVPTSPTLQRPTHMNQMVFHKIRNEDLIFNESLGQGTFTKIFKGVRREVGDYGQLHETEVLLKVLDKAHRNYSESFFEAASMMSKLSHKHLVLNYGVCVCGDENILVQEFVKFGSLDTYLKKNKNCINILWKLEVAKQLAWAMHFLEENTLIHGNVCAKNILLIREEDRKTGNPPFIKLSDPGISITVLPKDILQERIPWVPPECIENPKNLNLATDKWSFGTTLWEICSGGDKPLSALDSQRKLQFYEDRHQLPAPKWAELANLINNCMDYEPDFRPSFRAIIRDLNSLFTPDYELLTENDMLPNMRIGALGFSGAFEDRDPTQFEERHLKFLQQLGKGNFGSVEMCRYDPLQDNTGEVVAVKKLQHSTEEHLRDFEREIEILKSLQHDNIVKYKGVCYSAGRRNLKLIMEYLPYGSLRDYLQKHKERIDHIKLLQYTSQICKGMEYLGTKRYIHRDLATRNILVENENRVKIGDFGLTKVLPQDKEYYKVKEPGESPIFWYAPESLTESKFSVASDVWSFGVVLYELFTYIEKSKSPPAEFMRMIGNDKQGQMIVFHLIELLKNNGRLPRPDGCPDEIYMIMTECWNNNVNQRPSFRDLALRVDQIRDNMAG

[8] = target: EPHB2 (UniProt P29323); experiment: as above
Chain of EPHB2 (P29323 whole entry, looked up): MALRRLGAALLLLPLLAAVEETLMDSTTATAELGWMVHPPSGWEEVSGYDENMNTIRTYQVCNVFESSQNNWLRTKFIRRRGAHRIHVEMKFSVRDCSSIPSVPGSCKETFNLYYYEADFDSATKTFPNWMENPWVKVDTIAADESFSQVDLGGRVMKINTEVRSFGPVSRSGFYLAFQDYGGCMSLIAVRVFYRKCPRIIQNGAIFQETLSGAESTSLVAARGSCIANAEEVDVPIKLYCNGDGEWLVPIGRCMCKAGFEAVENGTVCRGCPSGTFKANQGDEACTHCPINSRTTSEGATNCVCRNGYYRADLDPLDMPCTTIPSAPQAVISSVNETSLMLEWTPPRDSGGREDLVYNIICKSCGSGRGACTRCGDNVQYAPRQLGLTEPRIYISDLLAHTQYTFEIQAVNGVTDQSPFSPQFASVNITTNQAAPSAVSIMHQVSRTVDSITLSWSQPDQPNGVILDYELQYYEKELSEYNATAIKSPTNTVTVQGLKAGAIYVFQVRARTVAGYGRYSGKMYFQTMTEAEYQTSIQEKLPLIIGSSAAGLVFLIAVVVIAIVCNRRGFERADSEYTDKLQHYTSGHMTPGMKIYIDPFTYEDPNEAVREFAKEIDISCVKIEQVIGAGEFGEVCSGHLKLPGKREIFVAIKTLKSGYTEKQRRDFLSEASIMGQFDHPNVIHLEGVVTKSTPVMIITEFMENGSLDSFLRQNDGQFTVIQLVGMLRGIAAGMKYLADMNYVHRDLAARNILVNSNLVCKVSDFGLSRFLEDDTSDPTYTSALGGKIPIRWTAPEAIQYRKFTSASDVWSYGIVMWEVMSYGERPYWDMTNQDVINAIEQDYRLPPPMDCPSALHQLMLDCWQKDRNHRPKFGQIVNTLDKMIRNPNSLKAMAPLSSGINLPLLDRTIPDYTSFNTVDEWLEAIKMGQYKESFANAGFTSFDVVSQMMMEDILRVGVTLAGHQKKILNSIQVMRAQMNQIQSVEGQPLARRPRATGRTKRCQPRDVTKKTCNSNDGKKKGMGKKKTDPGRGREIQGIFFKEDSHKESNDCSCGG

[9] = tested on: Fer (mouse); experiment: as above
[10] = target: EPHB1 (UniProt P54762); experiment: as above
[11] = target: FGFR3 (UniProt P22607); experiment: as above
[12] = target: FGFR1 (UniProt P11362); experiment: as above
[13] = target: Fes (UniProt P07332); experiment: as above
Chain of Fes (P07332 whole entry, looked up): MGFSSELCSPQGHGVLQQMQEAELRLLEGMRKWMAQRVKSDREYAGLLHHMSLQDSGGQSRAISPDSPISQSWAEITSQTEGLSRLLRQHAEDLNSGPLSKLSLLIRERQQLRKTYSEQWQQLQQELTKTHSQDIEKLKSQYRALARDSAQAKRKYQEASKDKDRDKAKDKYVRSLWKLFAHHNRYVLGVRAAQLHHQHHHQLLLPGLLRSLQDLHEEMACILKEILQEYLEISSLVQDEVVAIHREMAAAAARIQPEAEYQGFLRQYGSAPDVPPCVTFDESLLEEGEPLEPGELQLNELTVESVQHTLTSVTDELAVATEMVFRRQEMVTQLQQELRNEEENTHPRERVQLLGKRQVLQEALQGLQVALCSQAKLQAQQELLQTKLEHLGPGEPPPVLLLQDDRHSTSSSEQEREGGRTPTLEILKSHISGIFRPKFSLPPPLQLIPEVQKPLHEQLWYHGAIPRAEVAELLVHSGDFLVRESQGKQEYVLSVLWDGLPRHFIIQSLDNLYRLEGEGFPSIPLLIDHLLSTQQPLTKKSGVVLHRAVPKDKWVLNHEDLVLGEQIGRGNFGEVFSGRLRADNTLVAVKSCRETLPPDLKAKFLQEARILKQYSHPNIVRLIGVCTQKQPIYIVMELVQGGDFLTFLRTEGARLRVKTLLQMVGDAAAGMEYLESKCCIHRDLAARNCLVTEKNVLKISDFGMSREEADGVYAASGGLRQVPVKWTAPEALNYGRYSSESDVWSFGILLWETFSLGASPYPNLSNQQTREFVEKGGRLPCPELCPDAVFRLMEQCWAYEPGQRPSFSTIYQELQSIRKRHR

[14] = tested on: c-Abl (mouse); experiment: as above
[15] = target: MERTK (UniProt Q12866); experiment: as above
Chain of MERTK (Q12866 whole entry, looked up): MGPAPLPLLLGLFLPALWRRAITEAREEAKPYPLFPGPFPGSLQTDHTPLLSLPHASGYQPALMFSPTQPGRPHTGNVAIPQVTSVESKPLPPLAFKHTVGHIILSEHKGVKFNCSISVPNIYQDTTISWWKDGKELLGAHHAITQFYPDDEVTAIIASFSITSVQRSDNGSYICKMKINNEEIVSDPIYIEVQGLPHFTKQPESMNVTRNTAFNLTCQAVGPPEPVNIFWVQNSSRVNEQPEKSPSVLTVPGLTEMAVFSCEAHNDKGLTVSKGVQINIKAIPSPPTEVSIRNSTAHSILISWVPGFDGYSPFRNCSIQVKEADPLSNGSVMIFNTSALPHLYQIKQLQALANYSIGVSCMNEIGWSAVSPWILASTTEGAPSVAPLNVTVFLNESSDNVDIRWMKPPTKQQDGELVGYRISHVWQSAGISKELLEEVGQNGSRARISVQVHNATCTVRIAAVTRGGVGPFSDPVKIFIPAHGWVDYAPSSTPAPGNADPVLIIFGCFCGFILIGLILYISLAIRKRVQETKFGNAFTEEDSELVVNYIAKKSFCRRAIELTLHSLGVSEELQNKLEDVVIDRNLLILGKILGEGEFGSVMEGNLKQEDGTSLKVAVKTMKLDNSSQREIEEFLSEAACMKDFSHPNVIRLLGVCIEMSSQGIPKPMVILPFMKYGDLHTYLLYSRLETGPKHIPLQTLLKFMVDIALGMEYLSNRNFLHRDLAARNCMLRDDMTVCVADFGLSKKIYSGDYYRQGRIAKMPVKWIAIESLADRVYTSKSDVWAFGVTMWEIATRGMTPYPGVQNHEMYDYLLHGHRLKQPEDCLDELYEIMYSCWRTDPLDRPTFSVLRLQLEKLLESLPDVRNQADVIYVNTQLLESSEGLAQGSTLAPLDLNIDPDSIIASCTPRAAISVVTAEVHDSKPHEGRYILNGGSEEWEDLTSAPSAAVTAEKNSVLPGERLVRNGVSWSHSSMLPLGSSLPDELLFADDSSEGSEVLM

[16] = tested on: AncSZ; experiment: as above
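Wherever SH2 binding enrichment of the phosphorylated peptide, bacterial display is given: peptide library displayed on the E. coli surface as eCPX fusions, selected cells deep-sequenced, score is each peptide's frequency after selection divided by its frequency in the input.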
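Wherever phosphorylation enrichment, bacterial display is given: 11-residue human phosphosite peptides and single-mutation variants displayed on the E. coli surface, counted by deep sequencing, each peptide's frequency after selection divided by its frequency in the unselected input library; frequency after pTyr selection over input frequency; kinase dosed for 20-30% of maximal phosphorylation in three min.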

| Sequence | SH2 binding enrichment [1] | SH2 binding enrichment [2] | SH2 binding enrichment [3] | phosphorylation enrichment [4] | phosphorylation enrichment [5] | phosphorylation enrichment [6] | phosphorylation enrichment [7] | phosphorylation enrichment [8] | phosphorylation enrichment [9] | phosphorylation enrichment [10] | phosphorylation enrichment [11] | phosphorylation enrichment [12] | phosphorylation enrichment [13] | phosphorylation enrichment [14] | phosphorylation enrichment [15] | phosphorylation enrichment [16] |
| --- | --- | --- | --- | --- | --- | --- | --- | --- | --- | --- | --- | --- | --- | --- | --- | --- |
| LLVVLYKYRCY [PSEN1_Y154] | 0.87 | 0.777 | 1.17 | 0.708 | 0.609 | 0.532 | 0.974 | 0.642 | 0.699 | 0.318 | 0.615 | 0.686 | 1.79 | 1.57 | 0.746 | 1.11 |
| LNARHYGGLTG [PGAM2_Y92_E89A] | 0.656 | 0.446 | 0.779 | 0.542 | 0.631 | 0.301 | 0.606 | 0.3 | 0.634 | 0.376 | 0.513 | 0.567 | 0.573 | 0.668 | 0.44 | 0.585 |
| LNEWHYGGLTG [PGAM2_Y92_R90W] | 1.29 | 0.682 | 0.723 | 0.738 | 0.52 | 0.662 | 0.84 | 0.452 | 0.636 | 0.444 | 0.891 | 0.58 | 1.12 | 0.626 | 0.365 | 0.74 |
| LNPDGYKKAFE [CPXM2_Y427_E428K_YF] | 0.578 | 0.488 | 0.945 | 0.54 | 0.827 | 0.495 | 1.68 | 0.793 | 0.67 | 0.727 | 0.833 | 0.866 | 2.1 | 1.28 | 0.727 | 1.02 |
| LNPFIYSLRNR [OR1A1_Y288] | 1.55 | 0.486 | 0.873 | 1.28 | 2.23 | 0.657 | 1.43 | 0.618 | 0.6 | 0.437 | 0.579 | 0.891 | 1.55 | 0.974 | 0.493 | 1.46 |
| LQKPMYEVQWK [KIT_Y553] | 0.633 | 0.522 | 0.771 | 0.788 | 0.617 | 0.81 | 1.42 | 0.912 | 0.83 | 2.63 | 1.49 | 0.851 | 1.32 | 1.36 | 1.28 | 1.29 |
| LQPNNCQFCGG [CSF1R_Y969_Y969C] | 0.865 | 0.709 | 0.943 | 0.987 | 0.647 | 0.752 | 1.05 | 0.711 | 0.348 | 0.735 | 1.21 | 0.752 | 0.858 | 1.07 | 0.785 | 0.929 |
| LRRREYQRQDY [PRKRIP1_Y90] | 0.727 | 0.435 | 0.76 | 0.621 | 0.565 | 0.706 | 0.289 | 0.786 | 0.504 | 0.706 | 0.683 | 0.532 | 0.64 | 0.554 | 0.541 | 0.841 |
| LRSRVYEVPVE [SLC26A3_Y756_N753S] | 0.461 | 3.83 | 0.714 | 1.25 | 0.708 | 0.962 | 0.795 | 1.03 | 2.09 | 0.773 | 0.833 | 0.722 | 0.91 | 0.719 | 1.66 | 1.01 |
| LRYDSYSSYCN [SLC20A2_Y433] | 0.449 | 1.24 | 0.65 | 0.949 | 1.27 | 0.837 | 0.865 | 5.07 | 0.577 | 2.74 | 0.849 | 0.619 | 1.12 | 0.824 | 1.38 | 1.32 |
| LRYEVYGGENE [STOX1_Y610] | 0.56 | 1.64 | 0.677 | 0.828 | 0.77 | 0.615 | 1.09 | 0.729 | 0.623 | 0.765 | 0.692 | 0.631 | 1.25 | 0.775 | 0.499 | 1.33 |
| LSGVIYVILRK [PMP22_Y153] | 1.4 | 0.841 | 1.89 | 0.513 | 0.484 | 0.279 | 0.633 | 0.23 | 0.504 | 0.46 | 1.11 | 0.443 | 0.823 | 0.923 | 0.364 | 1.01 |
| LTFDEYRNNSQ [ANXA3_Y216_I219N] | 0.616 | 0.417 | 0.654 | 0.443 | 0.753 | 0.675 | 1.38 | 0.682 | 0.553 | 0.431 | 0.632 | 0.573 | 1.24 | 1.13 | 0.4 | 0.762 |
| LTTEVYFPSIK [C5orf64_Y60_A57T] | 0.885 | 0.564 | 0.911 | 0.541 | 0.563 | 0.77 | 0.703 | 0.628 | 0.482 | 0.436 | 0.661 | 0.775 | 0.895 | 0.766 | 0.562 | 0.946 |
| LVMFIYAISGM [SCN1A_Y1684_F1687S] | 1.4 | 0.569 | 0.792 | 0.727 | 0.85 | 0.442 | 1.17 | 0.927 | 0.813 | 0.931 | 1.01 | 0.48 | 1.99 | 1.17 | 0.725 | 1.2 |
| LVSCTYQLARG [FGFR2_Y608] | 0.7 | 0.515 | 0.894 | 0.483 | 0.783 | 0.579 | 0.983 | 0.62 | 0.605 | 0.536 | 0.698 | 0.452 | 1.08 | 0.91 | 0.443 | 1.23 |
